In patent publication US8501695B2, “Tissue kallikrein for the treatment of diseases associated with amyloid protein” (DiaMedica, Inc., priority 2007, dated 2013):

How the values were obtained:
[1] = target: T1, Amyloid beta1-42 (hAPβ42 peptide) (Homo sapiens, UniProt P05067); assay: Direct cleavage of amyloid beta, β-Amyloid1-42 ELISA; assay type: biochemical
T1 construct: Amyloid beta1-42 standard (from β-Amyloid1-42 ELISA, Human kit, Sigma BE0200); purchased Sigma BE0200
Protocol: Amyloid beta1-42 standard (from β-Amyloid1-42 ELISA, Human kit, Sigma BE0200) was reconstituted into 1.0 μg/mL as per kit instructions. A stock solution of tissue kallikrein (SEQ ID: 1) and approximately 0.5 molar equivalents of Soybean Trypsin Inhibitor (Sigma, T6522) was prepared in PBS and serially diluted in triplicate with a fixed concentration of hAPβ42 peptide at 500 pg/mL. Solutions were incubated for 3 and 18 hours respectively after which time additional protease inhibitors were added (1/100 dilution of protease inhibitor cocktail solution, Sigma P8340). As per kit instructions, 50 μL of the above samples were added and the ELISA plate incubated overnight at 4° C. The remaining steps of the ELISA plate development were followed as per kit instructions and then read using a multiwell ELISA plate reader at 450 nm. Percent cleavage was determined by: 100−[(Ave KLK1−Ave Blank)/(Ave Control−Ave Blank)×100]=% Cleavage Results

[2] = test system: rat mixed cortical cultures (RMCC); assay: Aβ1-42 toxicity in rat mixed cortical cultures, neuronal survival (NeuN cell count); assay type: cell-based
Protocol: Whether pre-treatment with tissue kallikrein protects rat mixed cortical cultures against exposure to human amyloid beta peptide (Aβ1-42) was investigated. Cell death was analyzed by LDH-release, an indication of necrosis, and cell viability was also analyzed by neuronal cell count. First (Study Arm A), tissue kallikrein was added to the cells only prior to the Aβ1-42 insult (at −24 h and at −30 min). Whereas in the second part (Study Arm B), tissue kallikrein was added to the cells prior to (−30 min) and also at +24 h after the Aβ1-42 insult. At the +24 h time point, cell culture media were not changed (tissue kallikrein or corresponding amount of vehicle was added to the wells), whereas at −24 h and −30 min time point cell culture media were changed.
[…] Cell Culture. Mixed cortical cultures were prepared from E18 Wistar rat embryos (National Animal Center, Kuopio, Finland). The cortices were dissected out, and the tissue cut to small pieces. The cells were separated by 15-min incubation with DNase and papain. The cells were collected by centrifugation (1500 rpm, 5 min). The tissue was triturated with a pipette and the cells were plated on poly-L-lysine-coated 48-well plates, 300,000 cells/cm^2, in MEM (2 g/L glucose) supplemented with 2 mM glutamine, 0.1 μg/ml gentamicin, 10% heat-inactivated fetal bovine serum (FBS-HI) and 10% heat-inactivated horse serum (HS-HI). After 3-4 h, the media were changed to MEM (2 g/L glucose) supplemented with 2 mM glutamine, 0.1 μg/ml gentamicin, 5% HS-HI. After three days in vitro, media containing MEM (2 g/L glucose) supplemented with glutamine, gentamicin, and 5% of both sera were changed to the cells. On day 6 in vitro, the unwanted cell division was inhibited by adding cytosine arabinoside (10 μM final concentration) for 24 h. The cultures were refed with MEM (2 g/L glucose) supplemented with glutamine, gentamicin, and 5% HS-HI before experiments.
Aβ1-42 Exposure. Tissue kallikrein (SEQ ID NO:1) was dissolved and further diluted in MEM supplemented with glucose, glutamine, gentamicin, and 5% HS-HI. As a control for total neuronal death, 300 μM N-methyl-D-aspartic acid (NMDA) for 48 h was used, and 10 μM Aβ1-42 for 48 h was used to induce approximately 30-50% cell death. Wells treated with media only served as 0-control. Tissue kallikrein or vehicle was pipetted to the cells −24 h and −30 min before adding 10 μM Aβ1-42 (final concentration). Tissue kallikrein or vehicle was again pipetted to the cells at +24 h after exposure.
Immunocytochemistry for Neuronal Survival. For neuronal counts, the cultures were fixed with 4% paraformaldehyde in 0.01 M PBS for 30 min and washed twice with PBS. The fixed cells were first permeabilized, and non-specific binding blocked by 30 min incubation with blocking buffer containing 1% bovine serum albumin and 0.3% Triton® X-100 in PBS. Anti-neuronal nuclei antibody (anti-NeuN, dilution 1:500, Chemicon, Temecula, Calif.) was used as the primary antibody. The cells were incubated with the primary antibody for 48 h, followed by incubation with a biotinylated secondary antibody (1:200, Vector Labs) for 2 h, and the avidin-biotin-peroxidase complex (ABC-reagent, 1:200, Vector ABC Elite Kit, Vector Labs) for 2 h. The positive cells were visualized using Ni-enhanced DAB as a substrate (DAB Substrate kit, Vector Labs). The NeuN immunopositive neurons were counted using a light microscope. Altogether, 2 fields of each well were counted. The results are shown as percent viable neurons.
Data Analysis. The number of wells per compound concentration used was 6 (n=6). […] Statistical analysis was performed using StatsDirect statistical software. The values were analyzed by one-way ANOVA followed by Dunnet's test (comparison to the vehicle-treated group). Results are presented as mean±standard deviation (SD) and differences are considered to be statistically significant at the P<0.05 level.

T1 sequence (P05067 672-713 limits assumed): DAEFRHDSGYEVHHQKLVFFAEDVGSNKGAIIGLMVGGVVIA

B1: tissue kallikrein: serine protease that cleaves kininogen into kallidin; polypeptide SEQ ID NO:1 (Sus scrofa kallikrein 1), KLK1 from Sigma (protein, listed as Sus scrofa)
chain: MWSLVMRLALSLAGTGAAPPIQSRIIGGRECEKDSHPWQVAIYHYSSFQCGGVLVDPKWVLTAAHCKNDNYQVWLGRHNLFENEVTAQFFGVTADFPHPGFNLSLLKNHTKADGKDYSHDLMLLRLQSPAKITDAVKVLELPTQEPELGSTCQASGWGSIEPGPDDFEFPDEIQCVELTLLQNTFCADAHPDKVTESMLCAGYLPGGKDTCMGDSGGPLICNGMWQGITSWGHTPCGSANKPSIYTKLIFYLDWINDTITENP
modifications: 125I label in one form
Percent Cleavage of Amyloid Beta ([1]; KLK1 1 pg/mL, 3 hrs): 0%
Percent Cleavage of Amyloid Beta ([1]; KLK1 1 pg/mL, 18 hrs): 0%
Percent Cleavage of Amyloid Beta ([1]; KLK1 10 pg/mL, 3 hrs): 0%
Percent Cleavage of Amyloid Beta ([1]; KLK1 10 pg/mL, 18 hrs): 15%
Percent Cleavage of Amyloid Beta ([1]; KLK1 100 pg/mL, 3 hrs): 0%
Percent Cleavage of Amyloid Beta ([1]; KLK1 100 pg/mL, 18 hrs): 19.5%
Percent Cleavage of Amyloid Beta ([1]; KLK1 1 ng/mL, 3 hrs): 19.6%
Percent Cleavage of Amyloid Beta ([1]; KLK1 1 ng/mL, 18 hrs): 50%
Percent Cleavage of Amyloid Beta ([1]; KLK1 10 ng/mL, 3 hrs): 36.6%
Percent Cleavage of Amyloid Beta ([1]; KLK1 10 ng/mL, 18 hrs): 88.4%
Percent Cleavage of Amyloid Beta ([1]; KLK1 100 ng/mL, 3 hrs): 71.7%
Percent Cleavage of Amyloid Beta ([1]; KLK1 100 ng/mL, 18 hrs): 99.8%
Percent Cleavage of Amyloid Beta ([1]; KLK1 1 μg/mL, 3 hrs): 92.1%
Percent Cleavage of Amyloid Beta ([1]; KLK1 1 μg/mL, 18 hrs): 100%
cell counts (survival) after Aβ1-42 insult ([2]; Study Arm A, 1.0 μg/ml): provided protection
cell counts (survival) after Aβ1-42 insult ([2]; Study Arm A, 10 μg/ml): protection provided by 10 μg/ml was statistically significant
cell counts (survival) after Aβ1-42 insult ([2]; Study Arm A, lower concentrations): did not affect cell counts
cell counts (survival) after Aβ1-42 insult ([2]; Study Arm B, 1.0 μg/ml): Increases in cell counts
cell counts (survival) after Aβ1-42 insult ([2]; Study Arm B, 10 μg/ml): protection provided by 10 μg/ml was statistically significant
cell counts (survival) after Aβ1-42 insult ([2]; Study Arm B, lower concentrations): did not affect cell counts
